According to the supplement of paper PMC10567573:

B1: TFE3 (parent)
chain: ELPNIKREISETEAKALLKERQKK
B2: FUT8 (parent)
chain: YPSYKVREKIETVKYPTYPEAEK

Variants of: B1
Test: protein stability index of a GFP-peptide fusion (GPS, HEK-293T) (PSI 1-6); higher = more stable
Conditions: c terminus: a fixed tail appended
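Further: lentivirally expressed fusions sorted by FACS into six bins by GFP to DsRed ratio, PSI derived from sequencing read proportions per bin multiplied by bin number.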

Protein stability index, by site and new letter:
L18: A 2.67; C 2.6; V 2.2; H 2.56; T 2.65; Q 2.96; R 2.32; E 2.5; P 2.77; F 2.28; S 2.77; G 1.87; W 2.37; M 2.05; K 3.19; D 2.07; Y 2.92; I 3.06; N 2.4
E13: I 3.33; H 4.65; K 3.83; Y 3.32; P 3.92; W 2.56; Q 4.34; T 4.34; G 4.58; R 3.43; S 4.13; N 3.83; D 4.12; F 3.26; M 3.71; V 3.45; L 3.06
Q22: F 2.34; A 2.73; K 2.35; G 2.77; P 2.34; R 2.9; H 2.73; T 2.52; E 2; D 2.11; Y 1.8; M 2.75; L 2.24; N 2.5; I 2.52; W 2.4; V 2.83; C 2.71; S 2.73
L17: W 2.7; M 2.71; E 2.25; N 2.56; Y 2.48; R 3.27; T 2.68; I 2.98; G 2.76; D 2.13; H 2.12; C 3.09; A 2.74; K 3.17; S 2.32; Q 2.56; V 3.14; F 2.38; P 3.56
E20: L 2.44; S 2.67; I 2.29; W 2.82; A 2.99; N 2.9; M 2.59; H 2.9; T 3.07; R 3.29; D 2.79; K 2.83; Q 2.77; F 2.03; C 2.07; V 2.52; Y 2.5; P 2.52; G 2.78
A16: Y 2.37; L 2.34; D 4.48; I 3.16; T 2.96; H 4.11; F 2.08; G 3.47; S 2.87; K 3.91; P 4.2; V 2.79; Q 4.6; E 4.09; R 3.68; M 2.63; N 4.09; C 2.2; W 2.57
K19: H 2.36; Q 2.83; V 2.8; P 2.29; M 2.89; R 2.32; T 2.42; L 2.84; I 2.84; C 2.07; F 2.65; E 2.62; Y 3.06; W 2.29; D 2.52; G 1.71; S 2.53; A 2.7; N 2.57
K24: I 2.69; W 2.44; V 2.96; S 2.28; C 2.71; A 2.46; T 2.79; Q 2.84; E 3.37; R 2.15; P 2.17; M 2.19; Y 2.69; G 2.76; N 3.05; L 2.53; D 2.91; H 2.2; F 2.03
K15: H 2.94; N 2.22; I 2.21; V 2.02; L 2.08; E 1.86; Y 2.31; D 1.98; M 2.41; Q 2.46; C 3.29; G 2.34; A 2.5; T 2.3; S 2.75; P 4.59; R 3.15; F 2.54; W 2.42
A14: R 2.51; M 2.05; F 2.83; I 2.46; K 2.75; Q 2.39; P 3.06; H 3.14; S 2.22; L 2.54; C 2.48; W 2.69; N 2.64; Y 2.49; V 2.45; E 3.05; G 3; T 2; D 2.17
K23: I 2.34; L 2.91; P 2.35; A 2.19; C 3.09; Y 2.1; N 2.85; S 2.8; R 2.78; H 2.44; T 2.86; V 2.61; M 2.4; F 2.36; W 2.36; E 2.64; Q 2.45; D 2.56; G 2.42
R21: D 2.88; Q 2.73; W 2.15; K 2.5; I 2.66; A 3.07; S 1.81; V 2.53; G 2.28; H 2.63; C 2.43; P 2.32; T 2.82; Y 2.72; N 2.91; M 2.25; F 2.38; L 2.97; E 2.74

Variants of: B2
Test: as above
Conditions: c terminus: native

Protein stability index of substitutions, site by site:
Y4: T 4.91; H 4.93; W 3.66; P 5.02; K 5.03; L 4.68; A 4.86; Q 4.52; N 4.47; M 4.88; G 5.38; E 4; C 4.13; F 4.64; I 4.16; V 4.52; D 4.57; R 4.29; S 4.59
V6: A 4.67; R 4.36; F 2.83; D 4.76; C 3.91; P 4.62; I 3.89; G 4.18; N 4.62; E 4.43; L 4.69; K 4.55; M 3.86; H 4.58; Q 4.13
S3: K 4.78; C 4.08; M 4.08; R 3.79; A 4.02; Y 4.12; T 4.19; N 4.3; I 4.44; L 4.7; E 4.18; W 3.02; D 4.69; V 3.66; P 3.35; G 3.92; H 4.39; F 3.25
P2: C 3.11; V 2.75; Q 2.5; G 4.05; H 3.01; I 2.91; N 3.9; W 3.32; R 4.76; E 4.52; T 3.35; L 3.84; F 3.51; S 4.78; K 4.35; D 4.48; M 3.58; Y 3.73; A 3.58
Y1: S 4.96; R 4.58; N 5.08; A 5.42; M 4.7; W 4.46; T 4.92; V 4.97; F 4.75; E 4.99; Q 4.96; P 5.38; D 5.3; L 5.16; I 5.15; H 4.98; G 5.08; C 4.41
K5: E 5.15; A 3.92; L 4.12; P 4.61; T 4.6; M 4.45; H 4.34; I 4.45; W 2.49; F 2.91; V 4.16; Q 4.68; N 4.81; R 4.32; S 4.54; Y 3.62; G 4.29; D 4.72; C 4.2
